# Laboratory results from patent CN111518208A (QICHEN BAITAI BEIJING MEDICAL TECH CO LTD, dated 2020).
# Substitutions are numbered along the chain they refer to.
# B1: 抗人CD47单克隆抗体A1 (antibody, V domains shown)
# VH: EFQLQQSGPELVKPGASVKMSCKASGYTFTNYVLHWVKQKPGQGLEWIGYFNPYNDDSKYNEKFKGKATLTSDKSSSTAYMELSSLTSEDSAVYYCARGGYYSMDYWGQGTTVTVSS
# VL: DVMTQTPLSLPVSLGDQASISCRASQSLAHSNGYTYLQWYLQKPGQSPKLLIYKVSKRFSGVPDRFSGSGSGTDFTLKISRVEAEDLGVYFCSQSTHVPYTFGQGTKVEIK
# B2: 抗人CD47单克隆抗体A3 (antibody, V domains shown)
# VH: QVQLQQPGAELVRPGASVKLSCKASGHTFTNYWMNWIKQRPEQGLEWIGNIDPYDSETHYNQKFKDKAILTVGKSSSTAYMQLSSLTSEDSAVYYCAIWRGYALDYWGQGTSVTVSS
# VL: CDVQITQSPSYLAASPGETITINCRASKSISKFLAWYQEKPGKTNNLLIYSGSTLQSGIPSRFSGSGSGTDFTLTISSLEPEDFAMYYCQQHNEYPWTFGGGTKLEIK
# B3: 抗人CD47单克隆抗体A6 (antibody, V domains shown)
# VH: QVQLQQSGAELVRPGASVTLSCKASGYSFTDSEMHWVKQTPVYGLEWTGVIDPETGNSAYNQKFKGKATLTADKSSNTAYMELRSLTSEDSAVYYCTRGGVFGYPFDYWGQGTTLTVSS
# VL: ENVLTQSPAIMAASLGQKVTMTCSATSSVRSSYLHWYQQKSGASPKPLIHRTSNLASGVPARFSGSGSGTSYSLTISSVEAEDDATYYCQQWRGYPYTFGGGTKLEIK
# B4: 抗人CD47单克隆抗体A2 (antibody, V domains shown)
# VH: EVQVQQSGPELVKPGASVKISCKASGYSFTGYFMNWVKQSHGKSLEWIGRINPYNGDTFYNQKFKGKATLTVDKSSSTAHMELLSLTSEDSAVYYCGRGGYGGMDYWGQGTSVTVSS
# VL: DVLMTQTPLSLPVSLGDQASISCRSSQSIVHSNGNTYLEWYLQKPGQSPKLLIYKVSNRFSGVPDRFSGSGSGTDFTLKISRVEAEDLGVYYCFQGSHVPYTFGGGTKLEIK
# B5: 抗人CD47单克隆抗体A5 (antibody, V domains shown)
# VH: EVQLQQSGPELVKPGASMRMSCKASGYSFTGYTMHWVKQSHGTNLEWIGLINPYTGGTNYNQKFKGKATLTLDKSSSTAYMELLSLTSEDFAVYYCARMGLAWFAYWGQGTLVTVSA
# VL: B4 VL with L3V, I29L, L38F, E39H, Y92F, F94S, G96S, S97T, I111M
# Target: 细胞膜表面表达的人CD47蛋白 (human, UniProt Q08722 19-323)
# Assay: cell-based or functional assay
# Chain of 细胞膜表面表达的人CD47蛋白 (Q08722 19-323): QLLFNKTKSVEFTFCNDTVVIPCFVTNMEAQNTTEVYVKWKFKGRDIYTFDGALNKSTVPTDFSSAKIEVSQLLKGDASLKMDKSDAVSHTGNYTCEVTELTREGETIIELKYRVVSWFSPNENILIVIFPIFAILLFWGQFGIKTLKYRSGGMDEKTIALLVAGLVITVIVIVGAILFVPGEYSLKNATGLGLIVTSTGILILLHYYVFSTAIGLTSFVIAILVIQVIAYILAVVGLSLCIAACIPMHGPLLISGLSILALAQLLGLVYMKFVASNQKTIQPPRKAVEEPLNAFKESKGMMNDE
row,"促吞噬曲线的EC50值 (ATP法, C57BL小鼠腹腔原代巨噬细胞对Raji细胞的吞噬)",Binder
1,0.00439 微克/毫升,B1
2,0.00391 微克/毫升,B2
3,0.00568 微克/毫升,B3
4,0.00462 微克/毫升,B4
5,0.00665 微克/毫升,B5

# Target: T1, 人CD47蛋白胞外区融合蛋白(hCD47-ECD-6His) (human, UniProt Q08722 19-139, limits assumed)
# T1 construct: extracellular domain; Made in FreeStyle 293F cells, purified on a nickel column; not shown: linker peptide-6His (连接肽-6His)
# Assay: ELISA, hCD47-ECD-6His coated, goat anti-mouse IgG-HRP
# T1 sequence (Q08722 19-139 limits assumed): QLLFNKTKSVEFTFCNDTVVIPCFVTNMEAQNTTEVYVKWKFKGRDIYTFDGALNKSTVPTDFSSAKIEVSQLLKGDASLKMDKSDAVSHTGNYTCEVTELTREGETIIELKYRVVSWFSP
row,EC50 [µg/mL],Binder
1,0.016,B1
2,0.01,B2
3,0.01,B3
4,0.007,B4
5,0.016,B5
